Test results as given in patent US7422849B1, “Method for determining expression of a PI3 kinase gene” (Ludwig Institute for Cancer Research, priority 1992, dated 2008).
Read-outs that look alike come from different tables or passages of the source.

How the values were obtained:
[1] = molecular target: T1, p85α (Bos taurus, UniProt P23727); assay: Binding of baculovirus expressed p85α to peptide columns; set-up: made in house; host or cells: Sf9 insect cells (baculovirus pAcC4-p85α); species or system bovine
T1 sequence (P23727 whole entry): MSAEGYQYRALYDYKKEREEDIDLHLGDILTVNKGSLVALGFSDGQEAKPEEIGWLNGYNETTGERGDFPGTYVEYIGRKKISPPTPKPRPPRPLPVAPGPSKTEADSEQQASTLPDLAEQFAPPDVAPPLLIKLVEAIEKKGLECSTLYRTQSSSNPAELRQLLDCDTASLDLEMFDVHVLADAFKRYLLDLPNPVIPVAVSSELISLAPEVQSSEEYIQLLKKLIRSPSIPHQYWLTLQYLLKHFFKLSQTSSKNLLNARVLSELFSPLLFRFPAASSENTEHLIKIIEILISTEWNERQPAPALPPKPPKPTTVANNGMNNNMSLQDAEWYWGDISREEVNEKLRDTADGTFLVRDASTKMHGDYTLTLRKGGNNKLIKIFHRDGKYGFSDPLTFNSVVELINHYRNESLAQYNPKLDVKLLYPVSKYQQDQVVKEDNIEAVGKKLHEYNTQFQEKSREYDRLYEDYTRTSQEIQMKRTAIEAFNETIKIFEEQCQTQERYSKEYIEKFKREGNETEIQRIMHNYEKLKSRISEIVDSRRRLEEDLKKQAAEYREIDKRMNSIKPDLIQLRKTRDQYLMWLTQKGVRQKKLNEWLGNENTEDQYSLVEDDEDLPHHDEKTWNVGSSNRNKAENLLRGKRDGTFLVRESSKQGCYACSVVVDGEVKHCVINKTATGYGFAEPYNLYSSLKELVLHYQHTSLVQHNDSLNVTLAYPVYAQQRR
Procedure: (§1) Proteins were diluted in binding buffer (50 mM phosphate buffer (pH 7.2), 150 mM NaCl, 0.02% Triton X-100, 2 mM EDTA and 200 μM sodium orthovanadate), mixed with the appropriate peptide affinity resin and then allowed to bind for 2 h at 4° C. with rotation. The column material was washed repeatedly (>6×) with 50 column volumes of the same buffer and then with various elution buffers containing NaCl, urea or detergents. Bound proteins were either assayed for PI3-kinase activity or were removed from the column by boiling in SDS-PAGE sample buffer and then analysed by SDS-PAGE.
Baculovirus expressed bovine p85α and p85β were chosen to test these columns (Otsu et al, 1991).

[2] = molecular target: T2, bovine brain PI3-kinase (Bos taurus, UniProt P23727); assay: Binding of partially purified bovine brain PI3-kinase to peptide affinity columns
T2 construct: P13-kinase purified from bovine brain is a complex of p85α and p10; from tissue; host or cells: bovine brain
T2 sequence (P23727 whole entry): as above
T2 sequence (P32871 whole entry partner): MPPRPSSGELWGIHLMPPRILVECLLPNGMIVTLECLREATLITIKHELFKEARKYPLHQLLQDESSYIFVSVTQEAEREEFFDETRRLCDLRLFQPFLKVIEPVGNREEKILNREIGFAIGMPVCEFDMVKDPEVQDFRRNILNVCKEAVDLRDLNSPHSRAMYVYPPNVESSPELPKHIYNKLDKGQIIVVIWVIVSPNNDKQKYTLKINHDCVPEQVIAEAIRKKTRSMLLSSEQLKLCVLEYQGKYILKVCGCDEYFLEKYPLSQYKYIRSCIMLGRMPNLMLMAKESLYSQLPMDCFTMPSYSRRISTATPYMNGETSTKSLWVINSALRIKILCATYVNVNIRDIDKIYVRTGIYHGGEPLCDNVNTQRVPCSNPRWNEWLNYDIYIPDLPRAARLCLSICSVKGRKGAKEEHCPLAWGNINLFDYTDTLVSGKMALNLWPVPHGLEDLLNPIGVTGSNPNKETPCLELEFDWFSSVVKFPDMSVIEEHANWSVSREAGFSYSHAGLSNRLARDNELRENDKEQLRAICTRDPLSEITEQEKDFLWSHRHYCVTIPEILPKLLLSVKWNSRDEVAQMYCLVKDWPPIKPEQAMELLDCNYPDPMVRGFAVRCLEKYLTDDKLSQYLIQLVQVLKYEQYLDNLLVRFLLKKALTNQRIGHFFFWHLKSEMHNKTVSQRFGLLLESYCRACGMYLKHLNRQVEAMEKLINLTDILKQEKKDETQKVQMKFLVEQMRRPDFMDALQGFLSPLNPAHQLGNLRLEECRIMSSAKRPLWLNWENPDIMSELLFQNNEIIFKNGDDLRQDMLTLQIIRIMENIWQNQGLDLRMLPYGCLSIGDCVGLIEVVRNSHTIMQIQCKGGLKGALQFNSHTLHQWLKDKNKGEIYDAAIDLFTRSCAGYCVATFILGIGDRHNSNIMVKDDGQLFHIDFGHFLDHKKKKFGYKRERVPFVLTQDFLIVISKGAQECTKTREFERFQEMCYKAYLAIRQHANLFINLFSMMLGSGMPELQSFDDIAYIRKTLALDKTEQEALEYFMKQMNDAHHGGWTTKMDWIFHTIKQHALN
Procedure: as §1

[3] = molecular target: T3, CSF-1 receptor (Homo sapiens, UniProt P07333); assay: In vitro association of PI3-kinase activity with the CSF-1 receptor; assay type: binding; conditions: Sf9 cell lysates, receptor phosphorylated with ATP before incubation
T3 construct: made in house; host or cells: Sf9 insect cells (baculovirus)
T3 sequence (P07333 20-972): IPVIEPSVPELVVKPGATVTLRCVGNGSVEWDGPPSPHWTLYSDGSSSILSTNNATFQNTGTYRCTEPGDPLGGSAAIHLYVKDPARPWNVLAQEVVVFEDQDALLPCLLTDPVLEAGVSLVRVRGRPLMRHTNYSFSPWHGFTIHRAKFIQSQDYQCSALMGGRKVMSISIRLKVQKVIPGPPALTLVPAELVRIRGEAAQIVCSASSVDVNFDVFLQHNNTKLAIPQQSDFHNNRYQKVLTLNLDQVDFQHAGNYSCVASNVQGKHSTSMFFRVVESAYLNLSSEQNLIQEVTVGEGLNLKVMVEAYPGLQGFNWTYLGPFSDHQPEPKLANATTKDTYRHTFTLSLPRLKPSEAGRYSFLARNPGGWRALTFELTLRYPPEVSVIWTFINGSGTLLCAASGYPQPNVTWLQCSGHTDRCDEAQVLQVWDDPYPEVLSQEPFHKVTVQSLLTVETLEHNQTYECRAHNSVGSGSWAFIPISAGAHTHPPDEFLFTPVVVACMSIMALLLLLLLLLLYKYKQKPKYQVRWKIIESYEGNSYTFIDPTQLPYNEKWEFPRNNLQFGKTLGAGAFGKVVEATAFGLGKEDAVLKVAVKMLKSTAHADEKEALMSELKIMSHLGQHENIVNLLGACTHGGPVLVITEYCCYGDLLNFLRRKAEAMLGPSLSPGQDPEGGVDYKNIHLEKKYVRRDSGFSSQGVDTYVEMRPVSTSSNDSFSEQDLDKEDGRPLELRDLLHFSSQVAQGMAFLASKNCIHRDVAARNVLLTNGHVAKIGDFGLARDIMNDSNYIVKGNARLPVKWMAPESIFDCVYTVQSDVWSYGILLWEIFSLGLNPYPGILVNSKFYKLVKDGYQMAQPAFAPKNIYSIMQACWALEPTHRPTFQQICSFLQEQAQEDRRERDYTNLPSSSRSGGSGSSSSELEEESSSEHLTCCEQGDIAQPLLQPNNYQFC
Procedure: This assay was performed essentially as described by Kazlauskas and Cooper (1990). Sf9 cells were infected as already described and lysed 48 h post-infection in EB lysis buffer. CSF-1 receptor was immunoprecipitated from Sf9 cells and collected on Protein A-Sepharose beads. The immunocomplex was then subjected to extensive washing (3 times with EB lysis buffer, twice with kinase buffer; 50 mM HEPES (pH 7.4), 150 mM NaCl, 0.02% Triton X-100, 12 mM MgCl2, 2 mM MnCl2, 10% glycerol, 500 μM sodium orthovanadate) and the receptor phosphorylated for 15 min at 20° C. with ATP. The precipitates were then washed again to remove free ATP and incubated for 2 h at 4° C. with cell lysates prepared from Sf9 cells infected with viruses expressing (i) p85α, (ii) p110 or (iii) co-infected with viruses expressing p85α and p110. The immune complexes were washed and assayed for associated PI3-kinase activity.

[4] = PI3-kinase assay on immunoprecipitates from baculovirus infected Sf9 cells; assay type: biochemical; conditions: expressed in Sf9 cells
Procedure: (§2) The assay for PI3-kinase activity was carried out as described by Whitman et al. (1985).
To clone the p110 coding region into the baculovirus transfer vector p36C (Page, 1989) a Sau 3A1 site (GGATCA) present 10 nucleotides upstream from the initiation codon (see FIG. 9) was changed to a BamHI (GGATCC site by PCR mediated mutagenesis. Briefly, a sense oligonucleotide substituting C for A at position 6 of the Sau3A1 site was used in a PCR reaction with an antisense primer comprising nucleotides (102-124) of the p110 sequence. (see FIG. 9) using Vent polymerase (New England Biolabs). Template DNA was random-primed first strand cDNA prepared from SGBAF-1 cell mRNA as described above; PCR conditions: 94° C. 1 min, 50° C. 1 min, 72° C. 2 min, 35 cycles. The PCR product was digested with BamHl-EcoNl and a 118 bp fragment isolated from a low melting point agarose gel. […] The BamHl-EcoNl fragment of p110/(BamHl) was sequenced and found to agree with that previously determined. […] Cells were harvested and lysed 2 days post-infection in EB lysis buffer (20 mM Tris-HCl (pH 7.4), 50 mM NaCl, 50 mM NaF, 1% NP40, 1 mM EDTA, 500 μM sodium orthovanadate, 2 mM PMSF, 100 Kallikrein inhibitor units of Aprotinin ml^−1) (Kazlauskas and Cooper, 1989) and lysates were analysed by […].

[5] = PI3-kinase assay on immunoprecipitates from transfected COS-1 cells; assay type: biochemical; conditions: anti-p110 antiserum
Procedure: as §2
For transient expression of p85α in COS-1 cells the coding region for p85α was cloned into the adenovirus late promoter based expression vector pMT2 (Kaufman et al, 1989) as previously described (Otsu et al, 1991). For expression of the p110 cDNA plasmid pSG5-p110 was constructed as follows. The 3.4 kb BamHl-HindIII fragment from cDNA p2.1 was ligated into pSG5 (Stratagene) cut with BamHl and BglII, the HindIII and BglII overhangs of p2.1 and pSG5 respectively, being filled in with Klenow polymerase. This gave construct pSG5.2. Plasmid pBS/race (above) was digested with EcoRl and Hindlll, the 350 bp band gel purified by electroelution (Maniatis et al, 1982) and further digested with Sau3Al and Bsml. This mixture was then added to the gel purified Bsml-BstMl fragment from p2.1 and ligated in a three fragment ligation to pSG5.2 digested with BamHl and BstXl. […] Lysates were analysed by immunoprecipitation with anti-p85α polyclonal antiserum or with anti-p110 C-terminal peptide antiserum. Immunocomplexes collected on Protein A-Sepharose beads were analysed either on 10% SDS-PAGE gels followed by autoradiography or subjected to in vitro PI3-kinase assays as described.

[6] = molecular target: Y751 phosphopeptide; assay: phosphopeptide affinity resin, single incubation; PI3-kinase assay
[7] = molecular target: T4, p85β (Bos taurus, UniProt P23726); assay: Retention of p85β by GST-p110 fragments on glutathione sepharose column; assay type: binding; conditions: GST fusion protein expressed in bacteria
T4 construct: made in house; host or cells: baculovirus / insect cells
T4 sequence (P23726 whole entry, the tested form may be a part): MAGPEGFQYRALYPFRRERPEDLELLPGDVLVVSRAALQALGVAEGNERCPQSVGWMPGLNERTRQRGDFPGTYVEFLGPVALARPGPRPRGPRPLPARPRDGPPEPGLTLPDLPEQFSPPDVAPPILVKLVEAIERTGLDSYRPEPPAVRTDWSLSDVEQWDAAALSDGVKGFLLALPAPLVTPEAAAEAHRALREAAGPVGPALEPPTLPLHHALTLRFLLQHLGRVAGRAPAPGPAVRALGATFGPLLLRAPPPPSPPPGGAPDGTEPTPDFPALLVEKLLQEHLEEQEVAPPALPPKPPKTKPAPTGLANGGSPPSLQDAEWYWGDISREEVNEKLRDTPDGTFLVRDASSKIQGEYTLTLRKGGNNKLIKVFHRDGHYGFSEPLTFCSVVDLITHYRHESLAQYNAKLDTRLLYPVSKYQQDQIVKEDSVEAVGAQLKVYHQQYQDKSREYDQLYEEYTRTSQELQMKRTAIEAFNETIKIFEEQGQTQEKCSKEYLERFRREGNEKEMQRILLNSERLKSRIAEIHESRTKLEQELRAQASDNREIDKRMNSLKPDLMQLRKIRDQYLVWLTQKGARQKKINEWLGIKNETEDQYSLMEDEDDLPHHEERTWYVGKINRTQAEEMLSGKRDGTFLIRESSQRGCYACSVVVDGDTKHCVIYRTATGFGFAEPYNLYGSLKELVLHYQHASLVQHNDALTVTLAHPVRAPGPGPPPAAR
Description: (§3) The interation of the p85 and p110 subunits of PI3-kinase are thought to be required for the activity of the kinase in mammalian cells. Thus inhibiting the interaction between the subunits could provide a means of inhibiting the activity of this signal transduction pathway. In order to design reagents to p110 which will block the interaction, it is useful to define the region of […] which binds to the p85 subunits. To do this a series of mutants were constructed which express various domains of the […] protein (FIG. 23B). These fragments were expressed as GST fusion proteins in bacteria. The proteins were then bound to a glutathione sepharose column (Pharmicia) according to the manufacturer's instructions (Panayotou G et al (1992) Embo J 11:4261-4272). The ability of these protein fragments to bind the p85 subunits was assessed by the ability of the column specifically to retain p85 subunits purified from baculovirus (Otsu et al (1991) Cell 65:91-104). […] To further characterise the binding domain, deletion mutants and PCR fragments were made from the p110-N fragment as shown in FIG. 24. […] Removal of a further 20 amino acids from either the amino or carboxy termini led to loss of binding activity. Now that this domain has been identified it allows the design of specific peptides, antibodies or small molecules which can inhibit the interaction between the subunits.

[8] = molecular target: T1, p85α; assay: Retention of p85α by GST-p110 fragments on glutathione sepharose column; assay type: binding; set-up: made in house; host or cells: baculovirus / insect cells; conditions: GST fusion protein expressed in bacteria
Description: as §3

[9] = molecular target: T5, bovine p85α (bovine, UniProt P23727 1-724); assay: deletion mutants and PCR fragments of p110-N; retention of p85
T5 construct: Expressed by baculovirus in Sf9 cells or from pMT2-p85α in COS-1 cells, or native from bovine brain; which one is said under assay; also called 85 kD subunit; baculovirus expressed p85α
T5 sequence (P23727 whole entry, the tested form may be a part): as the sequence (P23727 whole entry) above
Description: as §3

[10] = molecular target: T6, bovine p85β (bovine, UniProt P23726 1-724); assay: as above
T6 construct: Expressed by baculovirus in Sf9 cells or in COS-1 cells; also called baculovirus expressed p85β
T6 sequence (P23726 whole entry): as the sequence (P23726 whole entry, the tested form may be a part) above
Description: as §3

Molecule: A R D I M R D S N Y I S K G S T F (ARDIMRDSNYISKGSTF) [Peptide Y587, 17 amino acid phosphopeptide around the second major tyrosine phosphorylation site in the PDGF β-receptor]
- binding of baculovirus expressed p85α to the peptide column ([1]; Sf9 cell lysate, SDS-PAGE of bound proteins): bind both columns to a similar extent

Molecule: D M S K D E S V D Y V P M L D M K [Y751 phosphopeptide]
- binding of baculovirus expressed p85α to the peptide column [1]: bind both columns to a similar extent
- PI3-kinase activity removed from Mono Q peaks 1 or peak 2 by the column [2]: > 90%

Molecule: p85α: 85 kD subunit of PI3-kinase, baculovirus expressed
- association of PI3-kinase activity with CSF-1 receptor [3]: No PI3-kinase activity associates
- PI3-kinase activity of immunoprecipitates [4]: inactive

Molecule: p110: bovine PI3-kinase 110 kD subunit, 1068 amino acids, calculated molecular mass 124,247
- PI3-kinase activity of anti-p110 immunoprecipitates [5]: no activity above that present in control immunoprecipitates
- association of PI3-kinase activity with CSF-1 receptor [3]: No PI3-kinase activity associates
- PI3-kinase activity of immunoprecipitates [4]: significant levels of PI3-kinase activity

Molecule: partially purified bovine brain PI3-kinase (p85α/p110 complex) (from UniProt P23727 2-724; P32871 1-1068) (enzyme)
- PI3-kinase activity removed by the column [6]: > 90%

B1: p110-N: GST fusion of human p110 fragment αα1-128 (protein)
chain: MPPRPSSGELWGIHLMPPRILVECLLPNGMIVTLECLREATLITIKHELFKEARKYPLHQLLQDESSYIFVSVTQEAEREEFFDETRRLCDLRLFQPFLKVIEPVGNREEKILNREIGFAIGMPVCEF
modifications: left off: a dimerising Fc or GST
- ability of p110 fragment to bind p85β subunit [7]: capable of binding
- ability of p110 fragment to bind p85α subunit [8]: capable of binding

B2: amino acids 19-110 of human p10: domain of human p110, amino acids 19-110, from deletion mutants of p110-N (protein, UniProt P42336 19-110, looked up, fragment)
chain: RILVECLLPNGMIVTLECLREATLITIKHELFKEARKYPLHQLLQDESSYIFVSVTQEAEREEFFDETRRLCDLRLFQPFLKVIEPVGNREE
- ability of p110 fragment to bind p85β subunit [7]: sufficient to associate with the p85 subunits
- ability of p110 fragment to bind p85α subunit [8]: sufficient to associate with the p85 subunits

B3: human p110 19-110 with a further 20 amino acids removed from the carboxy terminus (other)
chain: RILVECLLPNGMIVTLECLREATLITIKHELFKEARKYPLHQLLQDESSYIFVSVTQEAEREEFFDETRRLC
notes: Limits 19-90 are calculated from 'Removal of a further 20 amino acids'
- binding result [9]: no binding
- binding result [10]: no binding

B4: human p110 19-110 with a further 20 amino acids removed from the amino terminus (other)
chain: EATLITIKHELFKEARKYPLHQLLQDESSYIFVSVTQEAEREEFFDETRRLCDLRLFQPFLKVIEPVGNREE
notes: Limits 39-110 are calculated from 'Removal of a further 20 amino acids'
- binding result [9]: no binding
- binding result [10]: no binding
